Test results from the nanobody polyreactivity screen of Harvey et al. (2022).

Experiment: yeast display, Sf9 membrane polyspecificity reagent, FACS + sequencing; frameworks hold sequencing errors
Procedure, shortened: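 Nanobodies came from a synthetic yeast display library in Saccharomyces cerevisiae BJ5465, induced with galactose for 36–48 hours and stained for 1 hour at 4 °C with 10% biotinylated, detergent-solubilized Sf9 membrane reagent. Cells were enriched on streptavidin microbeads and then FACS-sorted, with low and high (top ~1%) gates set on anti-HA fluorescence for expression and streptavidin fluorescence for reagent binding. Each polyreactivity label reflects the gate a clone came from. Genes were amplified by colony PCR, sequenced by MiSeq 2 × 250 and filtered by CDR length.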

Row | Sequence | polyreactivity (PSR sort gate)
1 | QVQLVESGGGLVQAGGSLRLSCSDSGFTFARYTMGWYRQPPGKESELVAGISRSTGRTYYADSVKGLFTISRDNAKNTVYLQMNSLKPEDTAVYYCAARATRSLSRSMDYWGQGTQVTVSS | high polyreactivity
2 | QVQLVESGGGLVQAGGSLRLSCSSSGLTLYRYAMGWYRQAPGKERELVAGISWGGGSTYYADSVKGRFTISRDNAKNTVFLQMNSLKPEGNAVYYCAAGRLLYIPRYYYWGQGTQVTVSS | high polyreactivity
3 | QVQLVESGGGLVQAGGSLRLSCTASGSTYVAYAMGLYRQAPGKERELVAAITSSGGRTYYADSVKGRFTISRDNAKNTVYLQMNSLKPEDTAVYYCDAVTHGRYDWGQGTQVTVSS | high polyreactivity
4 | QVQLVESGGGLVQAGGSLRLSCVASGRIFARNAMGWYRQAPGKERELVAAISGSGVRTYYADSVKGRFTISRDNAKNTVYLQMNSLKPEDTAVYYCNAVSGGHRSRYGYWGQGTQVTVSS | high polyreactivity
5 | QVQLVESGGGLVQAGGSLRLSCVASGRIFLTYAMGWYRQAPGKERELVAAISYSGASTYYADSVKGRFTISRDNAKNTVYLQMNSLKPEDTSVYYCATERVGTPRMNYWGQGTQVTVSS | high polyreactivity
6 | QVQLVESGGGLVQAGGSLRLSCVASGRIFYNYAMGWYRQAPGNERELVAAISSSGGRTYYADSVKGRFTISRDNAKNTVYLQMNSLKPEDTAVYYCAADFHDASRPYGSWGQGTQVTVSS | low polyreactivity
7 | QVQLVESGGGLVQAGGSLRLSCVASGSILAYYAMGWYRQAPGKERELVAAISRSGGSTYYADSVKRRFTISRDNAKNTVNLQMNSLKPEDTAVYYCAADFRRWQYNTVNEFGYWGQGTQVTVSS | high polyreactivity
8 | QVQLVESGGGLVQAGGSLRLSFAASGFIFDKYAMGWYRQAPGKERELVATITSGGSTYYADSVKGRFTISRDNAKNYVYLQMYSLKREDTADYYCAALDYGYRWYRYYYWGQGSQVTVSS | high polyreactivity
9 | QVQLVESGGGLVQAGGSLRLSFAASGFIFDYYAMGGYRQEPGKDRELVAAISSSGRTSYADSVKGRFTISRDNAKNTVYLQMNSLKPEDTAVYYCNATWRWTRRGYDYWGQGTQVTVSS | low polyreactivity
10 | QVQLVESGGGLVQAGGSLRLSFAASGFIFYRNTMGWYRQAPGKERELVAGITSGGRTNYADSVKGRFTISRDNAKNTVYLQMNSLKPEYTAVYYCNRVVYTYISTGSRHGRYNYWGQGTQVTVSS | high polyreactivity
11 | QVQLVESGGGLVQAGGSLRLSFAASGFIIGRNAMGWYRQAPGKEREMVAAITSGGNTYYADSVKGRFTISRDNAKNTVYLQMNSLKPEDTAVYYCAARRRYPLVDAGYYWGQGTQVTVSS | high polyreactivity
12 | QVQLVESGGGLVQAGGSLRLSFAASGFTFGWYAMGWYRQAPGKGRELVAAISGGDSRTYADSVKGRFTISRDNAKNTVYLQMNSLKPADTAVYYCNAENRQLYWWTVARSHYGYWGQGTQVTVSS | low polyreactivity
13 | QVQLVESGGGLVQAGGSLRLSFAASGFTFKYYAMGWYRPAPGKERELVAAIRSGGSTYYADSVKGRFTISRDNAKNTVYLQMNSLKPEDTAVYYCNAPAFYRYGLNYWGQGTQVTVSS | high polyreactivity
14 | QVQLVESGGGLVQAGGSLRLSFAASGFTFVNYAMGWYRQAPGKDRELVAAIRRSGSRTYYADSVKGRFTISRDKAKNTVYLQKNSLKPEDTAVYYCAAVWYSLYGNWGQGNQVTVSS | low polyreactivity
15 | QVQLVESGGGLVQAGGSLRLSFAASGIIFVGYAMGWYRQAPGKEMELVAAISTSSRTYYADSVKGRFTISRDNAKNTVYLQMNIQKPEDTAVYYCNARGTRWYYRHEYWGQGTQVTVSS | high polyreactivity
16 | QVQLVESGGGLVQAGGSLRLSFAASGIILGSYAMGWYRQAPGKERELVAGITSGGGTYYADSVKGRFTISRDNAKNTVYLQMNSLKPEDTAVYYCAKLYLHYYRYGYWGQGTQVTVSS | low polyreactivity
17 | QVQLVESGGGLVQAGGSLRLSFAASGINFEHNSMGWYRQAPGKERELVAVISKYGGRTYYADSVKGRFTISRDNAKNTVYLQMNSLKPEDTAVYYCAKRSPFITWNGISYEEYDYWGQGTQVTVSS | low polyreactivity
18 | QVQLVESGGGLVQAGGSLRLSFAASGITFSLYVMGWYRQAPGKERELVAAISYRGGTTYYADSVKGRFTISRDNAKNTVYLQMNSLKPEDTAVYYCAARGSRDRQEAEYGYWGQGTQVTVSS | high polyreactivity
19 | QVQLVESGGGLVQAGGSLRLSFAASGRIFAYYAMGCYRQAPGKERELVASISRSGGRTYYADSVKGRFTISRDNAKNTVYLQMNSLKPEDTAVYYFNRAVWFKSTVDYWGQGTQVTVSS | high polyreactivity
20 | QVQLVESGGGLVQAGGSLRLSFAASGRIFGYYAMGWYRQAPGKERELVAAITTSDGSTYYADSVKGRFTISRDNAKNTVYLQMNSLKPEDTAVYYCNARRWGYQWRGDYWGQGTQVTVSS | high polyreactivity
21 | QVQLVESGGGLVQAGGSLRLSFAASGRIFRSYAMGWYRQAPGKERELVAAITSGGSTYYADSVKGRFTISRDNAKNTVYLQLNSLKPEDTAVYYCNADYDVSSPRPAFDYWGQGTQVTVSS | low polyreactivity
22 | QVQLVESGGGLVQAGGSLRLSFAASGRIFYSNARGWYRQAPGKERELVATITRSSGITYYADSVKGRFTISRDNAKNTVYLQMNSLKTEDTAVYYWADRYSNRWARVSGYDYWGQGTQVTVSS | high polyreactivity

Row | Sequence | polyreactivity (PSR sort gate)
23 | QVQLVESGGGLVQAGGSLRLSFAASGRTFGYYAMGWYRHAPGKERELVAAITRNGGRTYYADSVKGRFTISSDNAKNTFYLQMNSLKPEDTAVYYCAKDQYKPEAFYYWGQGTQVTVSS | high polyreactivity
24 | QVQLVESGGGLVQAGGSLRLSFAASGRTFSRYAMVWYRQAPGKERELVATISFGGSTYYADSVKGRFTISRDNAKNTVYLQMNSLKPEDTALYYCTARYYLNYRGRKYESWGQGTQVTVSS | high polyreactivity
25 | QVQLVESGGGLVQAGGSLRLSFAASGSIFKGYTMGWYIQAPGKEREFVASISRRGGSTYYADSVKGRFTISRDNAKNTVYLQMNSLKPEYTAVYYCAKDYGKAYDYWGQGTQVTVSS | high polyreactivity
26 | QVQLVESGGGLVQAGGSLRLSFAASGSIFPSYAMVWYRQAPGKERELVARISSGDDSTYYADSVKGRFTISRDNAKNTVYLQMNSLKPEDNAVYYCAADYPDVVYLEYDYWGQGTQVTVSS | low polyreactivity
27 | QVQLVESGGGLVQAGGSLRLSFAASGSIFTPNVMGWYRPAPGKERELVAAISQSGGSTFYADSVKGRFTISRDNAKNTVYLQMNSLKPEDTAVYFCATEYYGPVYDLDYDYWGQGTQVTVSS | low polyreactivity
28 | QVQLVESGGGLVQAGGSLRLSFAASGSIFYAYAMGWYRQAPGKERELVAGISGGGSTNYADSVKGRFTISRDNAKNTVYLQMNSLKPEDTAVYYCAADGWLSATYDGLPDSDSWGQGTQVTVSS | high polyreactivity
29 | QVQLVESGGGLVQAGGSLRLSFAASGSTFGLNAMGWYRQAPGKERELVAAITRSDITNYADSVKGRFTISRDNAKNTVYLQMNSLKPEDTAVYYCNKTPDRHRRYFGYGYWGQGTQVTVSS | low polyreactivity
30 | QVQLVESGGGLVQAGGSLRLSFAASGSTFPVYTMGWYRQAPGKERELVAAITGSGGRTYYADSVKGRFTISRDNAKNTVYLQMNSLKPEDTAVYYCNAYPKGRYAAAFPGMDYWGQGTQVTVSS | high polyreactivity
31 | QVQLVESGGGLVQAGGSLRLSFAASGYIFYPNVMGWYRQAPGKERELVADISSGGSTNYADSVKGRFTISRDNAKNTVYLQINSLKPEDTAVYYCAKGPRLYFTRDKAHWKYDYWGQGTQVTVSS | low polyreactivity
32 | QVQLVESGGGLVQAGGSLRLSFAATGRICSPYAMGWYRQAPGKERELVAAISYDDGITYYADSVKGRFTISRDNATNTVYLQMNSLTPEDTAVYYCAADSVTRPAGDYWGQGTQVTVSS | low polyreactivity
33 | QVQLVESGGGLVQAGGSLRLSFAGSGYIFTSYAMRWYRQAPGKERQLVARINYSGGGTSYADSVKGRFTISRDNAKHTVYLQMNSLKQEDTAVYYCAARSYWFRPTKYNYWGQGTQVTVSS | high polyreactivity
34 | QVQLVESGGGLVQAGGSLRLSFAPSGNSFGRYAMGWYRQAPGKERELVAAITRSGGTTYYADSVKGRFTLSRDNAKNTGYLQMNSLKPEDTAVYYCATDGDSTKLDYWGQGTQVTVSS | low polyreactivity
35 | QVQLVESGGGLVQAGGSLRLSFDASGLIFYYYTMGWYRPAPGKERELVAAITWTDVDTYYADSVKGRFTISRDNAKNTVYLQMNSLKPEDTAVYYCAAEGGRTSYGGSGELDYWGQGTQVTVSS | high polyreactivity
36 | QVQLVESGGGLVQAGGSLRLSGAASGFIFIGYTMGWYRQAPGKAWELVATISLGDDSTYYADSVKGRFTISRDNAKNTVYLQMNSLKPEDTAVYYCAGDQKDGTTSAYDYCGQGTQVTVSS | low polyreactivity
37 | QVQLVESGGGLVQAGGSLRLSGAASGFTFDNNAMGWYRQAPGKEREMVAAITGRGSRTNYADSVKGRFTISRDNAKNTVYLQMNSLKPEDTAVYYCATRLWVYGEGSFDDWGQGTQVTVSS | high polyreactivity
38 | QVQLVESGGGLVQAGGSLRLSGAASGRIFDIYAMGWYRQAPGKERELVAGITSVGSTNYADSVKGRFTISRDYAKNTVYLQMNSLKPEDTAVYYCAADTSVHSEVDYGGQGTQVTVSS | low polyreactivity
39 | QVQLVESGGGLVQAGGSLRLSGAASGRIFVRNSMGWYRQAPGKERELVAAISSNGGSTRYADSVKGRFTISRDNAKNTVYLQMNSQKPEDTAVYYCNAYYSHSPRYLKYDYWGQGTQVTVSS | high polyreactivity
40 | QVQLVESGGGLVQAGGSLRLSGAASGRILRRYTMGWSRQAPGKERELVAAISSGGNTYYADSVKGRFTISRDNATNTVYLQMNSLKPEDTAGYYCAARVRRYWEYDYWGQGTQVTVSS | low polyreactivity
41 | QVQLVESGGGLVQAGGSLRLSGAASGRTFGSNDMGWYRQAHGKERELVAAISGRTDSTYYADSVKGRFTISRDIAKNTVYLQMNSLKPEDTAVYYCAADSADVLYYYIRYNYWGQGTQVTVSS | low polyreactivity
42 | QVQLVESGGGLVQAGGSLRLSGAASGRTFVYYAMGWYRQAPGKEREFVAAISRSGGRTSYADSVKGRFTISRDNAKNTVYLQMNSLKPEDTAVYDCAKRPQFFWSHPYDYWGQGTLVTVSS | high polyreactivity
43 | QVQLVESGGGLVQAGGSLRLSGAASGSIFSHYAMGWYRQAPGKAWELVASISTADSTNYADSVKGRFTISRDNAKNTVYFQMYSLKPEDTAVYYCAAEYQSYAQYAWGYDYCGQGTQVTVSS | low polyreactivity
